In patent US20260035728A1 (Chugai, published 2026):
One block for each binder: values may come before it.

Legend:
Experiment in all cases: co-expression of both H chains with the common L chain; cation exchange chromatography (IEX), ratio of peak areas of A-Homo, BiAb and B-Homo; IgG4-type
[1] = molecular target: humanized B26 antibody H chain, IgG4-type w1 (D399K, E357K)
[2] = molecular target: humanized B26 antibody H chain, IgG4-type s1C (D399K, S354C)
[3] = molecular target: humanized B26 antibody H chain, IgG4-type w3C2 (E357K, E356K, Y349C)
[4] = molecular target: humanized B26 antibody H chain, IgG4-type w3 (E357K, E356K)
[5] = molecular target: humanized B26 antibody H chain, IgG4-type w2 (D399K, E356K)
[6] = molecular target: humanized B26 antibody H chain, IgG4-type w3C (E357K, E356K, S354C)

B1: humanized A69 antibody H chain, IgG4-type w1 (R409D, K370E) (other)
heavy: EVQLVQSGAEVVKPGSSVKVSCTASGYTFSDYYMHWVRQAPGEGLEWMGYINPSSGYTKYNRKFRDRVTITADKSTSTAYMELSSLRSEDTAVYYCARGGLGYYLDYWGEGTTVTVSSASTKGPSVFPLAPCSRSTSESTAALGCLVKDYFPEPVTVSWNSGALTSGVHTFPAVLQSSGLYSLSSVVTVPSSSLGTKTYTCNVDHKPSNTKVDKRVESKYGPPCPPCPAPEFLGGPSVFLFPPKPKDTLMISRTPEVTCVVVDVSQEDPEVQFNWYVDGVEVHNAKTKPREEQFNSTYRVVSVLTVLHQDWLNGKEYKCKVSNKGLPSSIEKTISKAKGQPREPQVYTLPPSQEEMTKNQVSLTCLVEGFYPSDIAVEWESNGQPENNYKTTPPVLDSDGSFFLYSDLTVDKSRWQEGNVFSCSVMHEALHNHYTQKSLSLSLGK
BiAb formation efficiency (%) [1]: ≥ 90%

B4: humanized A69 antibody H chain, IgG4-type w3 (K370E, K439E) (other)
heavy: EVQLVQSGAEVVKPGSSVKVSCTASGYTFSDYYMHWVRQAPGEGLEWMGYINPSSGYTKYNRKFRDRVTITADKSTSTAYMELSSLRSEDTAVYYCARGGLGYYLDYWGEGTTVTVSSASTKGPSVFPLAPCSRSTSESTAALGCLVKDYFPEPVTVSWNSGALTSGVHTFPAVLQSSGLYSLSSVVTVPSSSLGTKTYTCNVDHKPSNTKVDKRVESKYGPPCPPCPAPEFLGGPSVFLFPPKPKDTLMISRTPEVTCVVVDVSQEDPEVQFNWYVDGVEVHNAKTKPREEQFNSTYRVVSVLTVLHQDWLNGKEYKCKVSNKGLPSSIEKTISKAKGQPREPQVYTLPPSQEEMTKNQVSLTCLVEGFYPSDIAVEWESNGQPENNYKTTPPVLDSDGSFFLYSRLTVDKSRWQEGNVFSCSVMHEALHNHYTQESLSLSLGK
BiAb formation efficiency (%) [4]: ≥ 90%

Results, then the binder that gave them:

BiAb formation efficiency (%) [2]: ≥ 90%
B2: humanized A69 antibody H chain, IgG4-type s1C (R409D, Y349C) (other)
heavy: EVQLVQSGAEVVKPGSSVKVSCTASGYTFSDYYMHWVRQAPGEGLEWMGYINPSSGYTKYNRKFRDRVTITADKSTSTAYMELSSLRSEDTAVYYCARGGLGYYLDYWGEGTTVTVSSASTKGPSVFPLAPCSRSTSESTAALGCLVKDYFPEPVTVSWNSGALTSGVHTFPAVLQSSGLYSLSSVVTVPSSSLGTKTYTCNVDHKPSNTKVDKRVESKYGPPCPPCPAPEFLGGPSVFLFPPKPKDTLMISRTPEVTCVVVDVSQEDPEVQFNWYVDGVEVHNAKTKPREEQFNSTYRVVSVLTVLHQDWLNGKEYKCKVSNKGLPSSIEKTISKAKGQPREPQVCTLPPSQEEMTKNQVSLTCLVKGFYPSDIAVEWESNGQPENNYKTTPPVLDSDGSFFLYSDLTVDKSRWQEGNVFSCSVMHEALHNHYTQKSLSLSLGK

BiAb formation efficiency (%) [3]: ≥ 90%
B3: humanized A69 antibody H chain, IgG4-type w3C2 (K370E, K439E, S354C) (other)
heavy: EVQLVQSGAEVVKPGSSVKVSCTASGYTFSDYYMHWVRQAPGEGLEWMGYINPSSGYTKYNRKFRDRVTITADKSTSTAYMELSSLRSEDTAVYYCARGGLGYYLDYWGEGTTVTVSSASTKGPSVFPLAPCSRSTSESTAALGCLVKDYFPEPVTVSWNSGALTSGVHTFPAVLQSSGLYSLSSVVTVPSSSLGTKTYTCNVDHKPSNTKVDKRVESKYGPPCPPCPAPEFLGGPSVFLFPPKPKDTLMISRTPEVTCVVVDVSQEDPEVQFNWYVDGVEVHNAKTKPREEQFNSTYRVVSVLTVLHQDWLNGKEYKCKVSNKGLPSSIEKTISKAKGQPREPQVYTLPPCQEEMTKNQVSLTCLVEGFYPSDIAVEWESNGQPENNYKTTPPVLDSDGSFFLYSRLTVDKSRWQEGNVFSCSVMHEALHNHYTQESLSLSLGK

BiAb formation efficiency (%) [5]: ≥ 90%
B5: humanized A69 antibody H chain, IgG4-type w2 (R409D, K439E) (other)
heavy: EVQLVQSGAEVVKPGSSVKVSCTASGYTFSDYYMHWVRQAPGEGLEWMGYINPSSGYTKYNRKFRDRVTITADKSTSTAYMELSSLRSEDTAVYYCARGGLGYYLDYWGEGTTVTVSSASTKGPSVFPLAPCSRSTSESTAALGCLVKDYFPEPVTVSWNSGALTSGVHTFPAVLQSSGLYSLSSVVTVPSSSLGTKTYTCNVDHKPSNTKVDKRVESKYGPPCPPCPAPEFLGGPSVFLFPPKPKDTLMISRTPEVTCVVVDVSQEDPEVQFNWYVDGVEVHNAKTKPREEQFNSTYRVVSVLTVLHQDWLNGKEYKCKVSNKGLPSSIEKTISKAKGQPREPQVYTLPPSQEEMTKNQVSLTCLVKGFYPSDIAVEWESNGQPENNYKTTPPVLDSDGSFFLYSDLTVDKSRWQEGNVFSCSVMHEALHNHYTQESLSLSLGK

BiAb formation efficiency (%) [6]: ≥ 90%
B6: humanized A69 antibody H chain, IgG4-type w3C (K370E, K439E, Y349C) (other)
heavy: EVQLVQSGAEVVKPGSSVKVSCTASGYTFSDYYMHWVRQAPGEGLEWMGYINPSSGYTKYNRKFRDRVTITADKSTSTAYMELSSLRSEDTAVYYCARGGLGYYLDYWGEGTTVTVSSASTKGPSVFPLAPCSRSTSESTAALGCLVKDYFPEPVTVSWNSGALTSGVHTFPAVLQSSGLYSLSSVVTVPSSSLGTKTYTCNVDHKPSNTKVDKRVESKYGPPCPPCPAPEFLGGPSVFLFPPKPKDTLMISRTPEVTCVVVDVSQEDPEVQFNWYVDGVEVHNAKTKPREEQFNSTYRVVSVLTVLHQDWLNGKEYKCKVSNKGLPSSIEKTISKAKGQPREPQVCTLPPSQEEMTKNQVSLTCLVEGFYPSDIAVEWESNGQPENNYKTTPPVLDSDGSFFLYSRLTVDKSRWQEGNVFSCSVMHEALHNHYTQESLSLSLGK
